These results are taken from US20230212587A1, “Mutant Hydroxyphenylpyruvate Dioxygenase Polypeptide, Encoding Gene Thereof and Use Therefor” (Beijing Dabeinong Biotechnology Co., Ltd., priority 2019, published 2023).

To fix the notation:
B1: BdHPPDm-F372A-02: Brachypodium distachyon HPPD mutant F372A, SEQ ID NO: 48 (protein)
chain: MPPPATTAAPAAAAVTPEHARPPRRVARVNPRSDRFSALSFHHVELWCADAASAAGRFSFALGAPPAARSDLSTGNSAHASILLRSGSLAFLFTAPYAPSPASDSAASIPSFSASAARQFTADHGGLAVRAVALRVSSASDAFHASVSAGARPSFPPADLGQGFALAEVELYGDVVLRFISHPDENTEIPFLPGFESVSNPGASTYGLTRFDHVVGNVPSLAPVAAYIAGFTGFHEFAEFTAEDVGTADSGLNSVVLANNSERVLLPLNEPVHGTKRRSQIQTYLDHHGGPGVQHIALASDDVLRTLREMRARSAMGGFEFLAPPPPNYYDGVRRRAGDVLSEAQIKECQELGVLVDRDDQGVLLQIATKPVGDRPTLFLEMIQRIGCMEKDEIGQEQQKGGCGGFGKGNFSELFRSIEEYEKSLEAKQSAVVQES
modifications: BdHPPDm-F372A Amino Acid Sequence
B2: SiHPPD-02: native Setaria italica HPPD, SEQ ID NO: 57 (protein, listed as Setaria italica)
chain: MPPTPTPAAAAPGAAAAPAAGDQAAFRLVGHRGFVRVNPRSDRFHTLSFHHVELWCADATSAAGRFSFGLGAPLAARSDLSTGNSAHASLLLRSGSLAFLFTAPYAHGVDAATASLPSFSAPAARSFAADHGLAVRAIGLRVADAEDAFRASVAAGARPAFKPVELGLGFRLAEVELYGDVVLRYVSYPDAEDAPFLPGFENVNNPGALNYGLRRFDHIVGNVPELAPVAAYVAGFTGFHEFAEFTAEDVGTAESGLNSMVLANNSETVLIPLNEPVHGTKRRSQIQTFLDHNGGPGVQHIALASDDVLRTLREMQARSAMGGFEFMAAPPPDYYEGVRRRAGDVLSEAQIKECQELGVLVDRDDQGVLLQIFTKPVGDRQTLFLEIIQRIGCMEKDEQGQEYQKGGCGGFGKGNFSQLFKSIEDYEKSLESKQAAAVQGS
modifications: SiHPPD Amino Acid Sequence
B3: SiHPPDm-F372A-02: Setaria italica HPPD mutant F372A, SEQ ID NO: 60 (protein)
chain: B2 chain with F373A
modifications: SiHPPDm-F372A Amino Acid Sequence
B4: HvHPPD-02: native Hordeum vulgare HPPD, SEQ ID NO: 51 (protein)
chain: MPPTPTTPAATGAAAAVTPEHARPHRMVRFNPRSDRFHTLSFHHVEFWCADAASAAGRFAFALGAPLAARSDLSTGNSAHASQLLRSGSLAFLFTAPYANGCDAATASLPSFSADAARRFSADHGIAVRSVALRVADAAEAFRASRRRGARPAFAPVDLGRGFAFAEVELYGDVVLRFVSHPDGTDVPFLPGFEGVTNPDAVDYGLTRFDHVVGNVPELAPAAAYIAGFTGFHEFAEFTAEDVGTTESGLNSVVLANNSEGVLLPLNEPVHGTKRRSQIQTFLEHHGGPGVQHIAVASSDVLRTLRKMRARSAMGGFDFLPPPLPKYYEGVRRLAGDVLSEAQIKECQELGVLVDRDDQGVLLQIFTKPVGDRPTLFLEMIQRIGCMEKDERGEEYQKGGCGGFGKGNFSELFKSIEDYEKSLEAKQSAAVQGS
modifications: Hordeum vulgare; HvHPPD Amino Acid Sequence
B5: HvHPPDm-F372A-02: Hordeum vulgare HPPD mutant F372A, SEQ ID NO: 54 (protein)
chain: B4 chain with F366A
modifications: HvHPPDm-F372A Amino Acid Sequence

Residue numbers refer to the chain shown, from its start. In names and notes the source's numbering stands.

For the first assay, the system named is Arabidopsis thaliana T1 plants. In words: Topramezone tolerance of transgenic Arabidopsis thaliana T1 plants (pesticide damage grade by bleached leaf area, score, resistance evaluation). In kind it is in vivo. The note with it: HPPDs from different species; number of plants (of 16) in this grade; topramezone 25 g ai/ha (1x), 7 DAT. Summed up:
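Herbicide tolerance was judged per plant on a bleaching scale (grade 0 no bleaching to grade 3 fully bleached) 7 DAT. Topramezone doses were 0, 25, 50 and 100 g ai/ha on 18-day-old T1 and wild-type plants.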
As to B1, the “Classification and statistics of pesticide damage grade Grade 0” value was 16; the “Classification and statistics of pesticide damage grade Grade 1” value was determined as 0; the “Classification and statistics of pesticide damage grade Grade 2” value came to 0; the “Classification and statistics of pesticide damage grade Grade 3” value was 0.

As for B2, the “Classification and statistics of pesticide damage grade Grade 0” value was 0; the “Classification and statistics of pesticide damage grade Grade 1” value amounted to 0; the “Classification and statistics of pesticide damage grade Grade 2” value was determined as 0; the “Classification and statistics of pesticide damage grade Grade 3” value is on record as 16.

For the molecule B3, the “Classification and statistics of pesticide damage grade Grade 0” value is given as 13; the “Classification and statistics of pesticide damage grade Grade 1” value is on record as 2; the “Classification and statistics of pesticide damage grade Grade 2” value is given as 1; the “Classification and statistics of pesticide damage grade Grade 3” value was 0.

For the molecule B4, the “Classification and statistics of pesticide damage grade Grade 0” value came to 0; the “Classification and statistics of pesticide damage grade Grade 1” value worked out at 0; the “Classification and statistics of pesticide damage grade Grade 2” value came out at 0; the “Classification and statistics of pesticide damage grade Grade 3” value was 16.

Take B5: the “Classification and statistics of pesticide damage grade Grade 0” value came out at 15; the “Classification and statistics of pesticide damage grade Grade 1” value is 1; the “Classification and statistics of pesticide damage grade Grade 2” value is 0; the “Classification and statistics of pesticide damage grade Grade 3” value came to 0.

The same assay, now with this note: HPPDs from different species; number of plants (of 16) in this grade; topramezone 100 g ai/ha (4x), 7 DAT.
In the case of B1, the “Classification and statistics of pesticide damage grade Grade 0” value was determined as 6; the “Classification and statistics of pesticide damage grade Grade 1” value was found to be 10; the “Classification and statistics of pesticide damage grade Grade 2” value came to 0; the “Classification and statistics of pesticide damage grade Grade 3” value was 0.

For the molecule B2, the “Classification and statistics of pesticide damage grade Grade 0” value is on record as 0; the “Classification and statistics of pesticide damage grade Grade 1” value is 0; the “Classification and statistics of pesticide damage grade Grade 2” value is on record as 0; the “Classification and statistics of pesticide damage grade Grade 3” value is 16.

Turning to B3, the “Classification and statistics of pesticide damage grade Grade 0” value was determined as 6; the “Classification and statistics of pesticide damage grade Grade 1” value stood at 8; the “Classification and statistics of pesticide damage grade Grade 2” value is on record as 2; the “Classification and statistics of pesticide damage grade Grade 3” value is 0.

Regarding B4, the “Classification and statistics of pesticide damage grade Grade 0” value is 0; the “Classification and statistics of pesticide damage grade Grade 1” value is 0; the “Classification and statistics of pesticide damage grade Grade 2” value amounted to 0; the “Classification and statistics of pesticide damage grade Grade 3” value was determined as 16.

Take B5: the “Classification and statistics of pesticide damage grade Grade 0” value was determined as 8; the “Classification and statistics of pesticide damage grade Grade 1” value turned out to be 8; the “Classification and statistics of pesticide damage grade Grade 2” value is 0; the “Classification and statistics of pesticide damage grade Grade 3” value worked out at 0.

Staying with this assay, now noted: HPPDs from different species; score for pesticide damage 0-100; topramezone 25 g ai/ha (1x), 7 DAT.
In turn, B1 came in with a Scores of 0.

For B2, the Scores is 100.

The molecule B3 yielded a Scores of 8.

Regarding B4, the Scores came out at 100.

Molecule B5 had a Scores of 2.

Staying with this assay, now noted: HPPDs from different species; score for pesticide damage 0-100; topramezone 100 g ai/ha (4x), 7 DAT.
Molecule B1 had a Scores of 21.

In turn, B2 returned a Scores of 100.

Molecule B3 gave a Scores of 25.

In turn, B4 registered a Scores of 100.

For the molecule B5, the Scores turned out to be 17.

Still in this assay, the particulars now being: HPPDs from different species; topramezone 25 g ai/ha (1x), 7 DAT.
As to B1, the Resistance evaluation result is reported as “highly resistant (highly resistant plants (scores 0-15))”.

On to B2, for which the Resistance evaluation result is given as “non-resistant (non-resistant plants (scores 68-100))”.

With B3, the Resistance evaluation entry is “highly resistant (highly resistant plants (scores 0-15))”.

As to B4, the Resistance evaluation entry is recorded as “non-resistant (non-resistant plants (scores 68-100))”.

For the molecule B5, the Resistance evaluation result is “highly resistant (highly resistant plants (scores 0-15))”.

The same assay, now with this note: HPPDs from different species; topramezone 100 g ai/ha (4x), 7 DAT.
B1: the Resistance evaluation entry is “moderately resistant (moderately resistant plants (scores 16-33))”.

With B2, the Resistance evaluation result is “non-resistant (non-resistant plants (scores 68-100))”.

With B3, the Resistance evaluation result is on record as “moderately resistant (moderately resistant plants (scores 16-33))”.

As for B4, the Resistance evaluation entry was “non-resistant (non-resistant plants (scores 68-100))”.

Turning to B5, the Resistance evaluation entry is listed as “moderately resistant (moderately resistant plants (scores 16-33))”.
